Measurements taken from the RNAGym collection of RNA variant scans (doi:10.7554/elife.80360).

B1: Twister Ribozyme (parent)
chain: AACACUGCCAAUGCCGGUCCCAAGCCCGGAUAAAAGUGGAGGGGGCGG

Variants of: B1
Assay: self-cleavage, relative activity (ratio to wild type); higher = more cleavage; co-transcriptional

| Variant | self-cleavage |
| --- | --- |
| G16U C27U | 1.16 |
| C15A G45U | 0.528 |
| C14U C21G | 0.108 |
| G16C A34U | 0.207 |
| G16A C46G | 0.813 |
| C14U A33G | 0.927 |
| C14U A33C | 0.97 |
| C15A A23C | 0.0415 |
| C15U C25A | 0.178 |
| C15U C25U | 0.914 |
| G16C G28C | 0.306 |
| G16A G38A | 0.867 |
| G16A G38C | 0.761 |
| C15A A30U | 0.89 |
| C15A A30C | 0.648 |
| C15U G44A | 0.935 |
| G16C G39U | 0.144 |
| G16U G28U | 1.07 |
| C15U U18G | 0.0578 |
| C15U U18C | 0.396 |
| C14U G29C | 1.09 |
| C15U G38A | 0.831 |
| C15U G38U | 0.76 |
| G16U C26G | 0.136 |

| Variant | self-cleavage |
| --- | --- |
| G16U C26A | 0.45 |
| G16U C26U | 0.15 |
| C15U U31A | 0.785 |
| G16U G36C | 0.156 |
| G16A U18A | 0.482 |
| G16A U18C | 0.41 |
| G16A A40C | 0.122 |
| C14U G42A | 0.456 |
| C14U C15U | 1.51 |
| C14U C15A | 0.636 |
| C15G G36C | 0.0921 |
| C15G G36U | 0.0831 |
| C15A U37G | 0.0756 |
| C15A C19U | 0.566 |
| C15A C19G | 0.151 |
| C15A C19A | 0.0896 |
| C15G A33U | 0.121 |
| C14U A30G | 1.02 |
| G16U A33C | 0.66 |
| G16U A33G | 0.597 |
| G16U A33U | 0.88 |
| C14U C20A | 0.154 |
| C14U C20U | 0.942 |
| C15A G43C | 0.17 |

| Variant | self-cleavage |
| --- | --- |
| C15A G43U | 0.258 |
| G16U C46A | 0.662 |
| G16U C46U | 1.02 |
| G16U A40C | 0.156 |
| G16U A40U | 0.137 |
| G16A C25A | 0.117 |
| G16A C25G | 0.298 |
| G16A A23U | 0.228 |
| G16U C20G | 0.098 |
| G16U C20A | 0.109 |
| G16U C20U | 0.797 |
| C14U U31A | 0.92 |
| C14U U31G | 0.941 |
| C14U G24C | 0.102 |
| C14U G24A | 0.173 |
| C14U G24U | 0.135 |
| G16U G42C | 0.25 |
| C15A G24U | 0.0837 |
| G16A U31G | 0.996 |
| C15A G17A | 0.061 |
| C15A G17U | 0.0769 |
| G16U A35U | 0.948 |
| G16U A35G | 0.765 |
| G16U A35C | 0.961 |

| Variant | self-cleavage |
| --- | --- |
| C14U G17A | 0.538 |
| C15G G44A | 0.0802 |
| G16A G43A | 0.261 |
| C14U C27A | 0.586 |
| C14U C27U | 0.896 |
| C14U G48U | 1.17 |
| C15U G47A | 0.84 |
| C15U G47U | 0.8 |
| G16A A35C | 0.927 |
| G16A A35U | 1.05 |
| G16A A35G | 0.555 |
| C15U G48C | 1.07 |
| G16C A40C | 0.0741 |
| G16C A40U | 0.114 |
| C15A A40G | 0.107 |
| C15A A40C | 0.136 |
| C15G G16C | 0.305 |
| C15G G16A | 0.498 |
| C15G G16U | 0.814 |
| G16C A33C | 0.427 |
| G16C A33U | 0.359 |
| C15U A34G | 0.806 |
| C15A A34U | 0.273 |
| C15U A32U | 0.958 |

| Variant | self-cleavage |
| --- | --- |
| G16A G41A | 0.364 |
| C15U C46U | 0.917 |
| G16C C27A | 0.684 |
| G16C C27G | 0.608 |
| G16U G39C | 0.173 |
| C14U G38U | 0.904 |
| G16A C19A | 0.241 |
| G16A C19U | 0.826 |
| G16A G45U | 0.858 |
| G16A G45C | 0.595 |
| C15U C21U | 0.101 |
| C15U C21A | 0.138 |
| C14G U37A | 0.0885 |
| C14G U37C | 0.0984 |
| C14G U31C | 0.142 |
| C14G U31G | 0.158 |
| C14G U31A | 0.153 |
| G16A C20U | 0.837 |
| G16A C20A | 0.12 |
| G16A G36C | 0.133 |
| G16A G36U | 0.174 |
| C15U A35C | 0.863 |
| C15U U37C | 0.295 |
| C15U U37G | 0.568 |

| Variant | self-cleavage |
| --- | --- |
| C15U U37A | 0.559 |
| G16A G39U | 0.187 |
| G16C C20U | 0.489 |
| C15A C27U | 0.0943 |
| C15A C27A | 0.18 |
| G16A A22G | 0.155 |
| G16A A22U | 0.631 |
| G16A A22C | 0.941 |
| G16A G17C | 0.139 |
| G16A G17A | 0.281 |
| C15A C20U | 0.397 |
| C15A C20A | 0.0707 |
| C14U G47C | 0.616 |
| C14U G47U | 1 |
| C15A U18C | 0.104 |
| C15A U18A | 0.0699 |
| C14U G16A | 0.871 |
| C14U G16C | 0.36 |
| C15G G24U | 0.0758 |
| C15G G24C | 0.0723 |
| C15G G24A | 0.0815 |
| C15G A22U | 0.0572 |
| C15G A22G | 0.0636 |
| C15A G36C | 0.0919 |

| Variant | self-cleavage |
| --- | --- |
| C15A G36U | 0.142 |
| G16C G47C | 0.268 |
| G16C G47A | 0.165 |
| G16C G47U | 0.602 |
| C15A G38U | 0.355 |
| G16U G29U | 0.87 |
| C15U G36C | 0.204 |
| C15A G47A | 0.39 |
| G16U A23G | 0.0652 |
| G16U A23C | 0.115 |
| G16U G17A | 0.0957 |
| G16U G17U | 0.231 |
| G16U G41C | 0.212 |
| G16U G41U | 0.35 |
| C14U U18G | 0.0637 |
| G16C U18G | 0.116 |
| C15U G41A | 0.483 |
| C15U G41U | 0.452 |
| C15G U18A | 0.04 |
| C15G U18C | 0.048 |
| C15G G41C | 0.0823 |
| G16A G47C | 0.351 |
| G16A G47A | 0.702 |
